Results as given in the supplement of paper PMC10724198.
Values joined by “and” are separate entries in the source; they are usually repeats but may differ in a detail not shown here. Equal values may be shown once. ± gives the standard deviation of the averaged measurements.

Columns and labels:
Saccharomyces cerevisiae [1] = assay: protein stability index of tFT-peptide fusion in wild type (PSI (0-1 scale)); higher = more stable (slower turnover); settings: genetic background: wild type
Saccharomyces cerevisiae [2] = assay: protein stability index of tFT-peptide fusion in deletion strain of DOA10 (PSI (0-1 scale)); higher = more stable (slower turnover)
Method: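 MPS profiling in S. cerevisiae of two library types built from selected 12-aa C-degron peptides (IN1, IN2, LN1, LN3, VN2, R1-R5, W1-W3, Atg1 and Rpa12 C-termini): saturation mutagenesis libraries and C-terminal +1 capping libraries (13 aa). Each peptide is fused to the C-terminus of a sfGFP-mCherry timer, after a GGGS linker. Cells are FACS-sorted into 8 mCherry/sfGFP bins and sequenced. PSI runs from 0 (unstable) to 1 (stable), measured once in wild type and in the das1Δ or doa10Δ background.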

Saccharomyces cerevisiae [3] = assay: protein stability index of tFT-peptide fusion (C-terminal peptide) (PSI (0-1 scale)); higher = more stable (slower turnover); settings: genetic background: wild type; temperature: 30 C
Saccharomyces cerevisiae [4] = assay: protein stability index of tFT-peptide fusion in deletion strain of DAS1 (PSI (0-1 scale)); higher = more stable (slower turnover)
Saccharomyces cerevisiae [5] = assay: protein stability index of tFT-peptide fusion (C-terminal peptide) (PSI (0-1 scale)); higher = more stable (slower turnover)
Method: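 MPS profiling in S. cerevisiae of the tFT-X12 degron library: putative degron peptides plus stable controls, 12 aa, fused to the C-terminus of a sfGFP-mCherry timer. Cells are FACS-sorted into 8 mCherry/sfGFP bins and deep-sequenced. PSI runs from 0 (unstable) to 1 (stable). Backgrounds are wild type, das1Δ and doa10Δ at 30 °C, and wild type, das1Δ, cdc34-1 and cdc53-1 at 37 °C; 2-3 technical replicates each.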
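Wherever protein stability index of tFT-peptide fusion (C-terminal peptide) is given: PSI is a weighted mean of sequencing reads over stability bins, variants kept only with over 10 reads, mCherry proximal and sfGFP distal, peptide attached via GGGS linker.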
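Wherever protein stability index of tFT-peptide fusion in deletion strain of DAS1 is given: PSI is a weighted mean of each variant's read distribution over the sorted stability bins, computed only for variants having over 10 reads in total.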
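Wherever protein stability index of tFT-peptide fusion in deletion strain of DOA10 is given: PSI per variant is the weighted mean of its sequencing read distribution over the sorted stability bins, counting only variants with over 10 reads summed across bins.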
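Wherever protein stability index of tFT-peptide fusion in wild type is given: PSI derived as read-weighted mean over the 8 sorting bins, only variants exceeding 10 total reads kept, mCherry placed adjacent to the peptide and sfGFP distal.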

Row | Sequence | protein stability index (Saccharomyces cerevisiae [1]) | protein stability index (Saccharomyces cerevisiae [2]) | further results
1 | GLYMCSVGCWFA | 0.35 | 0.371 | –
2 | GLYMCSVGCWFRA | 0.225 | 0.44 | –
3 | GLYMCSVGCWFRC | 0.188 | 0.433 | –
4 | GLYMCSVGCWFRI | 0.11 | 0.455 | –
5 | GLYMCSVGCWRR | 0.62 | 0.662 | –
6 | GLYMCSVGEWFR | 0.663 | 0.686 | –
7 | GLYMCSVGYWFR | 0.213 | 0.603 | –
8 | GLYMCSVHCWFR | 0.371 | 0.453 | –
9 | GLYMCTVGCWFR | 0.219 | 0.527 | –
10 | GLYMGSVGCWFR | 0.303 | 0.704 | –
11 | GLYTCSVGCWFR | 0.392 | 0.682 | –
12 | GLYWCSVGCWFR | 0.246 | 0.646 | –
13 | GPYMCSVGCWFR | 0.413 | 0.667 | –
14 | GTYMCSVGCWFR | 0.344 | 0.675 | –
15 | HITLPMCPLLLR | 0.332 | 0.657 | –
16 | NSLRVLLPLYFR | 0.357 | 0.662 | –
17 | RCLRVLLPLYFR | 0.257 | 0.647 | –
18 | RELRVLLPLYFR | 0.19 | 0.684 | –
19 | RHTRLDAIYFRI | 0.517 | 0.679 | –
20 | RKLRVLLPLYFR | 0.282 | 0.668 | –
21 | RLIQPLPVQFLN | 0.0747 and 0.0662 | – | protein stability index (Saccharomyces cerevisiae [3]): 0.0935 ± 0.0062; protein stability index (Saccharomyces cerevisiae [4]): 0.672 and 0.598; protein stability index (Saccharomyces cerevisiae [5]; genetic background: cdc34-1, temperature: 37 C): 0.2752 ± 0.002; protein stability index (Saccharomyces cerevisiae [5]; genetic background: cdc53-1, temperature: 37 C): 0.644 ± 0.089; protein stability index (Saccharomyces cerevisiae [5]; genetic background: das1 deletion, temperature: 30 C): 0.616 ± 0.026; protein stability index (Saccharomyces cerevisiae [5]; genetic background: das1 deletion, temperature: 37 C): 0.732 ± 0.066; protein stability index (Saccharomyces cerevisiae [5]; genetic background: doa10 deletion, temperature: 30 C): 0.0708 ± 0.018; protein stability index (Saccharomyces cerevisiae [5]; genetic background: wild type, temperature: 30 C): 0.0754 ± 0.0037; protein stability index (Saccharomyces cerevisiae [5]; genetic background: wild type, temperature: 37 C): 0.0963 ± 0.012
22 | RSDRVLLPLYFR | 0.352 | 0.696 | –
23 | RSLCVLLPLYFR | 0.247 | 0.616 | –
24 | RSLHVLLPLYFR | 0.273 | 0.634 | –
25 | RSLIVLLPLYFR | 0.288 | 0.597 | –
26 | RSLRALLPLYFR | 0.491 | 0.684 | –

Row | Sequence | protein stability index (Saccharomyces cerevisiae [1]) | protein stability index (Saccharomyces cerevisiae [2]) | further results
27 | RSLRQLLPLYFR | 0.466 | 0.68 | –
28 | RSLRTLLPLYFR | 0.455 | 0.686 | –
29 | RSLRVFLPLYFR | 0.127 | 0.693 | –
30 | RSLRVLLALYFR | 0.287 | 0.552 | –
31 | RSLRVLLGLYFR | 0.392 | 0.662 | –
32 | RSLRVLLPCYFR | 0.409 | 0.647 | –
33 | RSLRVLLPKYFR | 0.646 | 0.676 | –
34 | RSLRVLLPLGFR | 0.482 | 0.682 | –
35 | RSLRVLLPLQFR | 0.472 | 0.635 | –
36 | RSLRVLLPLVFR | 0.356 | 0.676 | –
37 | RSLRVLLPLYFG | 0.452 | 0.591 | –
38 | VRGAVGGWRVVG | 0.259 | – | protein stability index (Saccharomyces cerevisiae [4]): 0.654
39 | VRGAVGKWRLVG | 0.172 | – | protein stability index (Saccharomyces cerevisiae [4]): 0.68
40 | VRGAVGMWRLVG | 0.169 | – | protein stability index (Saccharomyces cerevisiae [4]): 0.691
41 | VRGAVQGWRLVG | 0.157 | – | protein stability index (Saccharomyces cerevisiae [4]): 0.682
42 | VRGDVGGWRLVG | 0.108 | – | protein stability index (Saccharomyces cerevisiae [4]): 0.679
43 | VRGKVGGWRLVG | 0.129 | – | protein stability index (Saccharomyces cerevisiae [4]): 0.67
44 | VRGLVGGWRLVG | 0.154 | – | protein stability index (Saccharomyces cerevisiae [4]): 0.678
45 | VRKAVGGWRLVG | 0.18 | – | protein stability index (Saccharomyces cerevisiae [4]): 0.665
46 | VRMAVGGWRLVG | 0.132 | – | protein stability index (Saccharomyces cerevisiae [4]): 0.672
47 | VRSAVGGWRLVG | 0.141 | – | protein stability index (Saccharomyces cerevisiae [4]): 0.685
48 | WLIQPLPVQFLN | 0.0761 | – | protein stability index (Saccharomyces cerevisiae [4]): 0.643
49 | WRGAVGGWRLVG | 0.174 | – | protein stability index (Saccharomyces cerevisiae [4]): 0.655
50 | YSLAASFWRVVG | 0.128 | – | protein stability index (Saccharomyces cerevisiae [4]): 0.67
51 | YTSCGYKFRTNN | 0.212 | – | protein stability index (Saccharomyces cerevisiae [4]): 0.691
